± gives the standard deviation of the averaged measurements.
Experiments:
[1] = test system: hTERT-HMEC; test: percentage of EdU-negative (G0-arrested) nuclei per well, 72 h; higher = more G0 arrest; conditions: reference: sequence is the full UniProt precursor, the tested protein was the secreted form or ectodomain
[2] = test system: MCF7; test: as above; conditions: reference: sequence is the full UniProt precursor, the tested protein was the secreted form or ectodomain
[3] = protein concentration 0.024875 µM
[4] = protein concentration 0.24875 µM
[5] = protein concentration 0.0225 µM
[6] = protein concentration 0.025165 µM
[7] = protein concentration 0.25165 µM
[8] = protein concentration 0.02778 µM
[9] = protein concentration 0.2778 µM
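Further: secreted proteins added to cultured cells, EdU pulse at the end, nuclei found by Hoechst imaging, EdU status from nuclear versus surrounding ring intensity ratio, PBS as neutral control.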

| Sequence | percentage of EdU-negative [1, 5] | percentage of EdU-negative ([1]; protein concentration 0.225 µM) | percentage of EdU-negative [2, 5] | percentage of EdU-negative ([2]; protein concentration 0.225 µM) | further results |
| --- | --- | --- | --- | --- | --- |
| MCRIAGALRTLLPLLAALLQASVEASGEIALCKTGFPEDVYSAVLSKDVHEGQPLLNVKFSNCNGKRKVQYESSEPADFKVDEDGMVYAVRSFPLSSEHAKFLIYAQDKETQEKWQVAVKLSLKPTLTEESVKESAEVEEIVFPRQFSKHSGHLQRQKRDWVIPPINLPENSRGPFPQELVRIRSDRDKNLSLRYSVTGPGADQPPTGIFIINPISGQLSVTKPLDREQIARFHLRAHAVDINGNQVENPIDIVINVIDMNDNRPEFLHQVWNGTVPEGSKPGTYVMTVTAIDADDPNALNGMLRYRIVSQAPSTPSPNMFTINNETGDIITVAAGLDREKVQQYTLIIQATDMEGNPTYGLSNTATAVITVTDVNDNPPEFTAMTFYGEVPENRVDIIVANLTVTDKDQPHTPAWNAVYRISGGDPTGRFAIQTDPNSNDGLVTVVKPIDFETNRMFVLTVAAENQVPLAKGIQHPPQSTATVSVTVIDVNENPYFAPNPKIIRQEEGLHAGTMLTTFTAQDPDRYMQQNIRYTKLSDPANWLKIDPVNGQITTIAVLDRESPNVKNNIYNATFLASDNGIPPMSGTGTLQIYLLDINDNAPQVLPQEAETCETPDPNSINITALDYDIDPNAGPFAFDLPLSPVTIKRNWTITRLNGDFAQLNLKIKFLEAGIYEVPIIITDSGNPPKSNISILRVKVCQCDSNGDCTDVDRIVGAGLGTGAIIAILLCIIILLILVLMFVVWMKRRDKERQAKQLLIDPEDDVRDNILKYDEEGGGEEDQDYDLSQLQQPDTVEPDAIKPVGIRRMDERPIHAEPQYPVRSAAPHPGDIGDFINEGLKAADNDPTAPPYDSLLVFDYEGSGSTAGSLSSLNSSSSGGEQDYDYLNDWGPRFKKLADMYGGGDD | – | – | – | – | percentage of EdU-negative [1, 3]: 4.75 ± 0.064%; percentage of EdU-negative [1, 4]: 9.56 ± 1.9%; percentage of EdU-negative [2, 3]: 27 ± 2.4%; percentage of EdU-negative [2, 4]: 28 ± 1.6% |
| MWTSGRMSNAKNWLGLGMSLYFWGLMDLTTTVLSDTPTPQGELEALLSDKPQSHQRTKRSWVWNQFFVLEEYTGTDPLYVGKLHSDMDRGDGSIKYILSGEGAGIVFTIDDTTGDIHAIQRLDREERAQYTLRAQALDRRTGRPMEPESEFIIKIQDINDNEPKFLDGPYVATVPEMSPVGTSVIQVTATDADDPTYGNSARVVYSILQGQPYFSVDSKTGVIRTALMNMDREAKEYYEVIIQAKDMGGQLGGLAGTTTVNITLSDVNDNPPRFPQKHYQMSVLESAPISSTVGRVFAKDLDEGINAEMKYTIVDGDGADAFDISTDPNFQVGIITVKKPLSFESKKSYTLKVEGANPHLEMRFLNLGPFQDTTTVHISVEDVDEPPVFEPGFYFVEVPEDVAIGTTIQIISAKDPDVTNNSIRYSIDRSSDPGRFFYVDITTGALMTARPLDREEFSWHNITVLAMEMNNPSQVGSVPVTIKVLDVNDNAPEFPRFYEAFVCENAKAGQLIQTVSAVDQDDPRNGQHFYYSLAPEAANNPNFTIRDNQDNTARILTRRSGFRQQEQSVFHLPILIADSGQPVLSSTGTLTIQVCSCDDDGHVMSCSPEAYMLPVSLSRGALIAILACIFVLLVLVLLILSMRRHRKQPYIIDDEENIHENIVRYDDEGGGEEDTEAFDIAAMWNPREAQAGAAPKTRQDMLPEIESLSRYVPQTCAVNSTVHSYVLAKLYEADMDLWAPPFDSLQTYMFEGDGSVAGSLSSLQSATSDSEQSFDFLTDWGPRFRKLAELYGASEGPAPLW [Q9HBT6] | 3.9 ± 0.76% | 50.2 ± 7% | 28 ± 0.47% | 36 ± 0.13% | – |
| MPACRLGPLAAALLLSLLLFGFTLVSGTGAEKTGVCPELQADQNCTQECVSDSECADNLKCCSAGCATFCSLPNDKEGSCPQVNINFPQLGLCRDQCQVDSQCPGQMKCCRNGCGKVSCVTPNF | – | – | – | – | percentage of EdU-negative [1, 6]: 4.52 ± 0.38%; percentage of EdU-negative [1, 7]: 4.9 ± 0.49%; percentage of EdU-negative [2, 6]: 25.2 ± 0.76%; percentage of EdU-negative [2, 7]: 25.3 ± 0.99% |
| MTTQLPAYVAILLFYVSRASCQDTFTAAVYEHAAILPNATLTPVSREEALALMNRNLDILEGAITSAADQGAHIIVTPEDAIYGWNFNRDSLYPYLEDIPDPEVNWIPCNNRNRFGQTPVQERLSCLAKNNSIYVVANIGDKKPCDTSDPQCPPDGRYQYNTDVVFDSQGKLVARYHKQNLFMGENQFNVPKEPEIVTFNTTFGSFGIFTCFDILFHDPAVTLVKDFHVDTIVFPTAWMNVLPHLSAVEFHSAWAMGMRVNFLASNIHYPSKKMTGSGIYAPNSSRAFHYDMKTEEGKLLLSQLDSHPSHSAVVNWTSYASSIEALSSGNKEFKGTVFFDEFTFVKLTGVAGNYTVCQKDLCCHLSYKMSENIPNEVYALGAFDGLHTVEGRYYLQICTLLKCKTTNLNTCGDSAETASTRFEMFSLSGTFGTQYVFPEVLLSENQLAPGEFQVSTDGRLFSLKPTSGPVLTVTLFGRLYEKDWASNASSGLTAQARIIMLIVIAPIVCSLSW | 5.11 ± 0.53% | 4.83 ± 0.5% | 26.6 ± 0.41% | 26.3 ± 2.3% | – |
| MALTAHPSCLLALLVAGLAQGIRGPLRAQDLGPQPLELKEAFKLFQIQFNRSYLSPEEHAHRLDIFAHNLAQAQRLQEEDLGTAEFGVTPFSDLTEEEFGQLYGYRRAAGGVPSMGREIRSEEPEESVPFSCDWRKVASAISPIKDQKNCNCCWAMAAAGNIETLWRISFWDFVDVSVQELLDCGRCGDGCHGGFVWDAFITVLNNSGLASEKDYPFQGKVRAHRCHPKKYQKVAWIQDFIMLQNNEHRIAQYLATYGPITVTINMKPLQLYRKGVIKATPTTCDPQLVDHSVLLVGFGSVKSEEGIWAETVSSQSQPQPPHPTPYWILKNSWGAQWGEKGYFRLHRGSNTCGITKFPLTARVQKPDMKPRVSCPP | 4.63 ± 1.3% | 48.2 ± 4% | 23.2 ± 3.5% | 32.1 ± 4.7% | – |
| MRLAGPLRIVVLVVSVGVTWIVVSILLGGPGSGFPRIQQLFTSPESSVTAAPRARKYKCGLPQPCPEEHLAFRVVSGAANVIGPKICLEDKMLMSSVKDNVGRGLNIALVNGVSGELIEARAFDMWAGDVNDLLKFIRPLHEGTLVFVASYDDPATKMNEETRKLFSELGSRNAKELAFRDSWVFVGAKGVQNKSPFEQHVKNSKHSNKYEGWPEALEMEGCIPRRSTAS | 5.06 ± 0.4% | 6.75 ± 0.34% | 24.6 ± 1.1% | 25.8 ± 2.3% | – |
| MSRPQLRRWRLVSSPPSGVPGLALLALLALLALRLAAGTDCPCPEPELCRPIRHHPDFEVFVFDVGQKTWKSYDWSQITTVATFGKYDSELMCYAHSKGARVVLKGDVSLKDIIDPAFRASWIAQKLNLAKTQYMDGINIDIEQEVNCLSPEYDALTALVKETTDSFHREIEGSQVTFDVAWSPKNIDRRCYNYTGIADACDFLFVMSYDEQSQIWSECIAAANAPYNQTLTGYNDYIKMSINPKKLVMGVPWYGYDYTCLNLSEDHVCTIAKVPFRGAPCSDAAGRQVPYKTIMKQINSSISGNLWDKDQRAPYYNYKDPAGHFHQVWYDNPQSISLKATYIQNYRLRGIGMWNANCLDYSGDAVAKQQTEEMWEVLKPKLLQR | – | – | – | – | percentage of EdU-negative [1, 8]: 5.6 ± 0.68%; percentage of EdU-negative [1, 9]: 6.64 ± 0.1%; percentage of EdU-negative [2, 8]: 25.1 ± 3.2%; percentage of EdU-negative [2, 9]: 24.6 ± 1.1% |
